Measured values reported in patent US20250171562A1.
Where a chain is given by its changes, count along the chain named. Names and notes keep the numbering of the source.

B1: NIgG4A1A1(G4S)3 (Fc fusion)
chain 1: EVQLLESGGGLVQPGGSLRLSCAASGFTFGNYDMAWVRQAPGKRPEWVSSIDTGGDITHYADSVKGRFTISRDNAKNTLYLQMNSLRPEDTAVYWCATDEEYALGPNEFDYYGQGTLVTVSSGGGGSGGGGSGGGGSGPPCPPCPAPEFLGGPSVFLFPPKPKDTLMISRTPEVTCVVVDVSQEDPEVQFNWYVDGVEVHNAKTKPREEQFNSTYRVVSVLTVLHQDWLNGKEYKCKVSNKGLPSSIEKTISKAKGQPREPQVYTLPPCQEEMTKNQVSLWCLVKGFYPSDIAVEWESNGQPENNYKTTPPVLDSDGSFFLYSRLTVDKSRWQEGNVFSCSVMHEALHNHYTQKSLSLSLGK
chain 2: B1 chain 1 with Y264C, C269S, W281S, L283A, Y322V
B2: NIgG4A1A1(G4S)2 (Fc fusion)
chain 1: EVQLLESGGGLVQPGGSLRLSCAASGFTFGNYDMAWVRQAPGKRPEWVSSIDTGGDITHYADSVKGRFTISRDNAKNTLYLQMNSLRPEDTAVYWCATDEEYALGPNEFDYYGQGTLVTVSSGGGGSGGGGSGPPCPPCPAPEFLGGPSVFLFPPKPKDTLMISRTPEVTCVVVDVSQEDPEVQFNWYVDGVEVHNAKTKPREEQFNSTYRVVSVLTVLHQDWLNGKEYKCKVSNKGLPSSIEKTISKAKGQPREPQVYTLPPCQEEMTKNQVSLWCLVKGFYPSDIAVEWESNGQPENNYKTTPPVLDSDGSFFLYSRLTVDKSRWQEGNVFSCSVMHEALHNHYTQKSLSLSLGK
chain 2: B2 chain 1 with Y259C, C264S, W276S, L278A, Y317V
B3: CIgE4A1A1(GS)1 (Fc fusion)
chain 1: GPPCPPCPAPEFLGGPSVFLFPPKPKDTLMISRTPEVTCVVVDVSQEDPEVQFNWYVDGVEVHNAKTKPREEQFNSTYRVVSVLTVLHQDWLNGKEYKCKVSNKGLPSSIEKTISKAKGQPREPQVYTLPPCQEEMTKNQVSLWCLVKGFYPSDIAVEWESNGQPENNYKTTPPVLDSDGSFFLYSRLTVDKSRWQEGNVFSCSVMHEALHNHYTQKSLSLSLGKGGGGSEVQLLESGGGLVQPGGSLRLSCAASGFTFGNYDMAWVRQAPGKRPEWVSSIDTGGDITHYADSVKGRFTISRDNAKNTLYLQMNSLRPEDTAVYWCATDEEYALGPNEFDYYGQGTLVTVSS
chain 2: B3 chain 1 with Y127C, C132S, W144S, L146A, Y185V
B4: CIgG4B3A1(G4S)1 (Fc fusion)
chain 1: GPPCPPCPAPEFLGGPSVFLFPPKPKDTLMISRTPEVTCVVVDVSQEDPEVQFNWYVDGVEVHNAKTKPREEQFNSTYRVVSVLTVLHQDWLNGKEYKCKVSNKGLPSSIEKTISKAKGQPREPQVYTLPPCQEEMTKNQVSLWCLVKGFYPSDIAVEWESNGQPENNYKTTPPVLDSDGSFFLYSRLTVDKSRWQEGNVFSCSVMHEALHNHYTQKSLSLSLGKGGGGSDVQLQESGGGLVQAGGSLRLSCAASGFIFRLAGMSWVRQAPGKGFEWVSGITMDGSTTNYADSVKGRFTISRDNSKNRLYLQMNSLKPEDTAVYYCARGAKGGYNDPRGQGTQVTVS
chain 2: B3 chain 1 with Y127C, C132S, W144S, L146A, Y185V
B5: CIgE4A1A1(GS3) (Fc fusion)
chain 1: GPPCPPCPAPEFLGGPSVFLFPPKPKDTLMISRTPEVTCVVVDVSQEDPEVQFNWYVDGVEVHNAKTKPREEQFNSTYRVVSVLTVLHQDWLNGKEYKCKVSNKGLPSSIEKTISKAKGQPREPQVYTLPPCQEEMTKNQVSLWCLVKGFYPSDIAVEWESNGQPENNYKTTPPVLDSDGSFFLYSRLTVDKSRWQEGNVFSCSVMHEALHNHYTQKSLSLSLGKGGGGSGGGGSGGGGSEVQLLESGGGLVQPGGSLRLSCAASGFTFGNYDMAWVRQAPGKRPEWVSSIDTGGDITHYADSVKGRFTISRDNAKNTLYLQMNSLRPEDTAVYWCATDEEYALGPNEFDYYGQGTLVTVSS
chain 2: B5 chain 1 with Y127C, C132S, W144S, L146A, Y185V
B6: CIgE4A1A1(GS)2 (Fc fusion)
chain 1: GPPCPPCPAPEFLGGPSVFLFPPKPKDTLMISRTPEVTCVVVDVSQEDPEVQFNWYVDGVEVHNAKTKPREEQFNSTYRVVSVLTVLHQDWLNGKEYKCKVSNKGLPSSIEKTISKAKGQPREPQVYTLPPCQEEMTKNQVSLWCLVKGFYPSDIAVEWESNGQPENNYKTTPPVLDSDGSFFLYSRLTVDKSRWQEGNVFSCSVMHEALHNHYTQKSLSLSLGKGGGGSGGGGSEVQLLESGGGLVQPGGSLRLSCAASGFTFGNYDMAWVRQAPGKRPEWVSSIDTGGDITHYADSVKGRFTISRDNAKNTLYLQMNSLRPEDTAVYWCATDEEYALGPNEFDYYGQGTLVTVSS
chain 2: B6 chain 1 with Y127C, C132S, W144S, L146A, Y185V
B7: CIgG4A1A1(RS) (Fc fusion)
chain 1: GPPCPPCPAPEFLGGPSVFLFPPKPKDTLMISRTPEVTCVVVDVSQEDPEVQFNWYVDGVEVHNAKTKPREEQFNSTYRVVSVLTVLHQDWLNGKEYKCKVSNKGLPSSIEKTISKAKGQPREPQVYTLPPCQEEMTKNQVSLWCLVKGFYPSDIAVEWESNGQPENNYKTTPPVLDSDGSFFLYSRLTVDKSRWQEGNVFSCSVMHEALHNHYTQKSLSLSLGKRSEVQLLESGGGLVQPGGSLRLSCAASGFTFGNYDMAWVRQAPGKRPEWVSSIDTGGDITHYADSVKGRFTISRDNAKNTLYLQMNSLRPEDTAVYWCATDEEYALGPNEFDYYGQGTLVTVSS
chain 2: B7 chain 1 with Y127C, C132S, W144S, L146A, Y185V
B8: CIgG4B3A1(RS) (Fc fusion)
chain 1: GPPCPPCPAPEFLGGPSVFLFPPKPKDTLMISRTPEVTCVVVDVSQEDPEVQFNWYVDGVEVHNAKTKPREEQFNSTYRVVSVLTVLHQDWLNGKEYKCKVSNKGLPSSIEKTISKAKGQPREPQVYTLPPCQEEMTKNQVSLWCLVKGFYPSDIAVEWESNGQPENNYKTTPPVLDSDGSFFLYSRLTVDKSRWQEGNVFSCSVMHEALHNHYTQKSLSLSLGKRSDVQLQESGGGLVQAGGSLRLSCAASGFIFRLAGMSWVRQAPGKGFEWVSGITMDGSTTNYADSVKGRFTISRDNSKNRLYLQMNSLKPEDTAVYYCARGAKGGYNDPRGQGTQVTVS
chain 2: B7 chain 1 with Y127C, C132S, W144S, L146A, Y185V

target: mixture of three Der p 2 specific recombinant human IgE clones H10, H12, P4E (human) (UniProt P01854); assay: RBL-SX38 IgE displacement, FACS
Sequence (P01854 other isoform, or with tags, fused parts or gaps): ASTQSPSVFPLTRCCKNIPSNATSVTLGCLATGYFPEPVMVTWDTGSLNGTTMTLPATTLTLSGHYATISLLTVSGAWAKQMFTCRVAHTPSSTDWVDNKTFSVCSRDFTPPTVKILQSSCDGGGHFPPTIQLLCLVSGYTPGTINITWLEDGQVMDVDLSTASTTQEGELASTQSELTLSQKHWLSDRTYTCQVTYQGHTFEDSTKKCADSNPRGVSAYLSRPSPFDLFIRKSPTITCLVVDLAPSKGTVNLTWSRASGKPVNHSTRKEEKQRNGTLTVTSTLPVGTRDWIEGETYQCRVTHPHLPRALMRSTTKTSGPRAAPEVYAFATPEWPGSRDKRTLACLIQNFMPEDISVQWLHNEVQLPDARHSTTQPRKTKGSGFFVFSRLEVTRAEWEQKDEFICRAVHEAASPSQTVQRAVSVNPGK

Row | Max effect/effect 1 µM | Binder
1 | 40% | B1
2 | 36% | B2
3 | 7% | B3
4 | 12% | B4
5 | 10% | B5
6 | 19% | B6
7 | 11% | B7
8 | 1% | B8
